The target of experiment [1] is T1, TSC2 (human, UniProt P49815 1-1807, limits assumed).
T1 construct: TSC2 without a stated tag, endogenous or expressed from transfected cDNA in 293T cell extracts; also called tuberin; endogenous TSC2
The experiment in a line: pull-down from cell extract with 6XHis baits (FIG. 13).

Another experiment has as its target T2, HA-tagged TSC2 (human, UniProt P49815 1-1807).
T2 construct: Expressed in 293T cells; used as cell extract; also called HA-TSC2; full length HA-tagged TSC2; not shown: HA tag
The experiment in a line: co-IP with anti-FLAG from CoCl2-treated 293T cells (FIG. 25).

Experiment [2] deals with T3, TSC2 “N” fragment (a.a. 2-935), HA-tagged (human, UniProt P49815 2-935).
T3 construct: also called HA-“N” fragment of TSC2; not shown: HA tag
T3 sequence (P49815 other isoform, or with tags, fused parts or gaps): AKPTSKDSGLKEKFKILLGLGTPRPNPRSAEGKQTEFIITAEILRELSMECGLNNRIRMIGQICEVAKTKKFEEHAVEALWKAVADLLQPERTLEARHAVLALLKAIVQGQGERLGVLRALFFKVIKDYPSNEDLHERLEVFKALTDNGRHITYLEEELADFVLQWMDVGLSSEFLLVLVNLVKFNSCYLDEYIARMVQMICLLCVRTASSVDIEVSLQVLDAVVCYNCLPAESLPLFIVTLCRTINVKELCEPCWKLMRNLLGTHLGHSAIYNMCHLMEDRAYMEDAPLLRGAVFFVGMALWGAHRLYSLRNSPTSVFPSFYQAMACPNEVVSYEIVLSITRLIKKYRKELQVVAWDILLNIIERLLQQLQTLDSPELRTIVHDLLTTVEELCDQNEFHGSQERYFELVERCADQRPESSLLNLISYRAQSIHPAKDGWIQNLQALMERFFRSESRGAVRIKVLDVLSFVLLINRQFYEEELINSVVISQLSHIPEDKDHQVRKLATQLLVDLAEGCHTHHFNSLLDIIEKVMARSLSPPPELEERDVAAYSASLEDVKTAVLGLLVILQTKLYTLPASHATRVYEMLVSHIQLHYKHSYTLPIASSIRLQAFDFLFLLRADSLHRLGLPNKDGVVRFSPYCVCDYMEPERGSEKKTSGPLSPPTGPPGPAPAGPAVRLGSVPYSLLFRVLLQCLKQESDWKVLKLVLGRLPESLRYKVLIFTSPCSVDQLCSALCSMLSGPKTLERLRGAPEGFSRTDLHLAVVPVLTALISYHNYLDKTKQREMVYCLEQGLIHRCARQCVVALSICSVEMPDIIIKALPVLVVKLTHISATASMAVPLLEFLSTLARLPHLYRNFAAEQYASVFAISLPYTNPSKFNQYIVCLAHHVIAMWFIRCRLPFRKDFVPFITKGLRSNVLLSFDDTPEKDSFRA
The experiment in a line: co-IP with anti-FLAG from 293T extract, anti-HA blot (FIG. 17).

Experiment [3] deals with T1, TSC2. The experiment in a line: co-IP from transfected 293T extract, immunoblot (FIG. 11). On the technique in general: Immunoblotting shows a protein as a band on a membrane.
Experiment [4] has as its target T1, TSC2. Briefly: summary of Example 6.
The target of experiment [5] is T4, HA-SV5-full length hRTP801 (human, UniProt Q9NX09 1-232).
T4 construct: Expressed in 293T HEK cells; also called HA-full length hRTP801; HA-SV5-hRTP801; not shown: HA tag; SV5 tag
T4 sequence: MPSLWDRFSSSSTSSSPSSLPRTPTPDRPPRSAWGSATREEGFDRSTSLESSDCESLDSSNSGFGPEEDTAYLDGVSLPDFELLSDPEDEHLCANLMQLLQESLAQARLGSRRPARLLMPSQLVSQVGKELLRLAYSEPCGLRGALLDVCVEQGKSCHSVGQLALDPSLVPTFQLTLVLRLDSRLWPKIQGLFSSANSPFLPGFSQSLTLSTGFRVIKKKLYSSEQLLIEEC
The experiment in a line: co-IP with M2 anti-FLAG resin from CoCl2-treated 293T HEK extract (FIG. 21).

T1 sequence (P49815 other isoform, or with tags, fused parts or gaps limits assumed): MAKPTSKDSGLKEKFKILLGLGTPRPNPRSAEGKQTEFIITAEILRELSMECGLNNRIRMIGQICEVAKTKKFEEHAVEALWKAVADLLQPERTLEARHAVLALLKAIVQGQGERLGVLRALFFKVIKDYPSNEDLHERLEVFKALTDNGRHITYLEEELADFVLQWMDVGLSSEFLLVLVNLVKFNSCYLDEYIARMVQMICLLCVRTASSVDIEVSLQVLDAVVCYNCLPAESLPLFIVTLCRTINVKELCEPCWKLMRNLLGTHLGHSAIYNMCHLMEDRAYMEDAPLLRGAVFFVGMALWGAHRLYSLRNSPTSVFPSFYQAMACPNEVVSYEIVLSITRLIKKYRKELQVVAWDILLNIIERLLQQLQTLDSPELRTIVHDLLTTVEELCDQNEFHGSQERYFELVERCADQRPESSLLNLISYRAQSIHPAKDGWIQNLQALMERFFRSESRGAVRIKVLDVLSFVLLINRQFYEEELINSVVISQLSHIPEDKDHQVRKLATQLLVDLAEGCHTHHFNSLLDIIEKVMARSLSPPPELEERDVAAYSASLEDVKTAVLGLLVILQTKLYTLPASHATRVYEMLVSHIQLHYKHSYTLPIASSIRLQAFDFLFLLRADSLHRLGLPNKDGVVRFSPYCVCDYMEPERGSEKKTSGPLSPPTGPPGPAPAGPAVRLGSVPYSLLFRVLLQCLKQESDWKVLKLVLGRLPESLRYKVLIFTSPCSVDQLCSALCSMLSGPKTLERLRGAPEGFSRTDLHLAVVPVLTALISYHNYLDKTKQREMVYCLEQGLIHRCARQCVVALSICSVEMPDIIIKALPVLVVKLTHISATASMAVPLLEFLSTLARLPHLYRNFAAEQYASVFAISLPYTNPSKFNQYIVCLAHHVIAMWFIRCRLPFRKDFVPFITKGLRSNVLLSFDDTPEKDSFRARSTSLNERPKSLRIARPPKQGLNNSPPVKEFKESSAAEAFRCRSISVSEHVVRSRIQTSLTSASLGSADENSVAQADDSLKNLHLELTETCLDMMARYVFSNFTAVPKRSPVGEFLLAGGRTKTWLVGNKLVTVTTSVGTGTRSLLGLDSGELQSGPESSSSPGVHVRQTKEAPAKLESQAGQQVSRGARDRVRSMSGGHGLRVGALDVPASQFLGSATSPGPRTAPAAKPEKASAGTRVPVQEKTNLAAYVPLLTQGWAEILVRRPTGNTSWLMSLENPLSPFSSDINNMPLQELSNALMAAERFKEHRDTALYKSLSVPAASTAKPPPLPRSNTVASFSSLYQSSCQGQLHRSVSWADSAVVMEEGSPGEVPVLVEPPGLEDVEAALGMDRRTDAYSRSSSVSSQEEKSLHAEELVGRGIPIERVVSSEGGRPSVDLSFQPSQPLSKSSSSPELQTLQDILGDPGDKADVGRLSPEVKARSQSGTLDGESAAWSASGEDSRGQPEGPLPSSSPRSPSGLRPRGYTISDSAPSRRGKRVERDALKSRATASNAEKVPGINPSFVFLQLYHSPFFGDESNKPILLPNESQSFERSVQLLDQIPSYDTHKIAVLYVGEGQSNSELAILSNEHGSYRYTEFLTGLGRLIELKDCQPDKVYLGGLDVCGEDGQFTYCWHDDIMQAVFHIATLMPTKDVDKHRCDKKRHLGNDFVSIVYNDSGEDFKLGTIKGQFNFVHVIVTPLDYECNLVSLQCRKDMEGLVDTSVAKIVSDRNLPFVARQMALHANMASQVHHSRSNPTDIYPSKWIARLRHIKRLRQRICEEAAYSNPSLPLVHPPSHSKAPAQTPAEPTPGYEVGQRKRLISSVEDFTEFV
T2 sequence (P49815 other isoform, or with tags, fused parts or gaps limits assumed): as above
Method for HA-tagged TSC2: Forty-eight hours after transfection, the cells were treated with CoCl₂ for overnight.

B1: 6XHis hRTP801 N-fragment (other)
chain: MPSLWDRFSSSSTSSSPSSLPRTPTPDRPPRSAWGSATREEGFDRSTSLESSDCESLDSSNSGFGPEEDTAYLDGVSLPDFELLSDPE
notes: not shown: 6XHis tag
Regarding B1, the binding result with TSC2 [1] is reported as “no binding”.

B2: FLAG-hRTP801 (other)
chain: T4 sequence
notes: Expressed by transient transfection in 293T cells; full length hRTP801 with FLAG tag; also called FLAG-full length hRTP801; FLAG-RTP801; not shown: FLAG tag
Take B2: the binding result (in the experiment with HA-tagged TSC2; in experiment [2]; with TSC2 [3]) was “binds” throughout.

B3: hRTP801 (other)
chain: T4 sequence
notes: also called endogenous hRTP801; exogenous hRTP801
As to B3, in the experiment with TSC2 [4], the binding result is reported as “binds”.

B4: FLAG-(N-C2)hRTP801 (other)
chain: MPSLWDRFSSSSTSSSPSSLPRTPTPDRPPRSAWGSATREEGFDRSTSLESSDCESLDSSNSGFGPEEDTAYLDGVSLPDFELLSDPEDEHLCANLMQLLQESLAQARLGSRRPARLLMPSQLVSQVGKELLRLAYSEPCGLRGALLDVCVEQGKSCHSVGQLALDPSLVPTFQLTLVLRLDSRLWPKIQGLFSS
notes: also called hRTP801 N-C2 fragment; hRTP801 N-C2 mutant; not shown: FLAG tag
B4: in experiment [5], the binding result is “binds”.
